According to the supplement of paper PMC9170038:

Tested on: MS2 coat protein
Assay: apparent KD of MS2 coat protein; higher = weaker reporter binding
Details: Eterna round: R107
Description: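 RNA-MaP round R107: designed RNA switches with theophylline, tryptophan, arginine or FMN aptamers are transcribed on-chip within common flanks. They are titrated with SNAP-549-labelled MS2 coat protein in RNA-MaP buffer (100 mM Tris pH 7.5, 80 mM KCl, 4 mM MgCl2), without ligand or with the indicated ligand. Median apparent KD per design.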

[1] = input ligand: theophylline 20 uM
[2] = input ligand: theophylline 2 mM
[3] = input ligand: tryptophan 2.4 mM

| Sequence | apparent KD of MS2 coat protein (input ligand: arginine 13.2 mM) | apparent KD of MS2 coat protein (input ligand: none) | apparent KD of MS2 coat protein [1] | apparent KD of MS2 coat protein [2] | apparent KD of MS2 coat protein [3] |
| --- | --- | --- | --- | --- | --- |
| CAAUAGAUAGCGGCCGCCACUUACUCAUGAGGUAACAACAUGAGGAUCACCCAUGUUUGAGGAUCAAGGACCGGGCUAUUUAUUG [AstrosSSTryB#7] | 29.1 nM | 27.5 nM | 39.1 nM | 31.9 nM | 19.1 nM |
| GGAUAGGACACGGCCGCCACUUGCUAGGAUACUAGCAACAUUUCCUCUCAUGAGGAUCACCCAUGAAGGACCGGGUGUCCUAUCG | 21.3 nM |  | 30.6 nM | 23.3 nM | 27.3 nM |
| GCACUACAUGAGGAUCACCCAUGUGCAGAUACCAGAGGUGUAUGCCUCCCUUGGCAGCUGCGUCGCUCUGGAAACUUAUUGGUUU [Same State Theophylline A GF17] | 18.3 nM |  | 26.6 nM |  | 18.6 nM |
| AACCGAGGCUAUCCUCUCCGACUAUGUGAUACCAGAAUAAUUUUAUUCCCUUGGCAGCAUGACAUGAGGAUCACCCAUGUCUCUU [SSTheo A #10] | 16 nM |  | 18 nM |  | 15.9 nM |
| UGUACUAUGUGAAGGAGCGAGAAGGAGCGAACAUGAGGAUCACCCAUGUACAGGUAGGUCGCUCAGGUAGGUCGCACAUAGUACU [ArgBS - Double aptamer] | 13.2 nM | 9.94 nM | 14.6 nM | 14.4 nM | 11.7 nM |
| GUCCUAAGGUCGGCCGCCACUGUAGAGUGUGAGCCAUCACAUGAGGAUCACCCAUGUUGUUGCUAUAGGACCGGGAUUGUAGGAC [#22 Exclusion Tryptophan B] | 13.5 nM |  | 15.5 nM | 12.6 nM |  |
| AUUCAUGGAAACAUGACAUACAUAACCGGUCGAGGACCGGUACGGCCGCCACUCGUUUGGAGGCACAUGAGGAUCACCCAUGUUA [SS Tryp A #9] | 21.7 nM |  | 35.9 nM | 28.2 nM |  |
| GUCCACAGCCGAAGGAGCGCUAGAAGAUGACAUGAGGAUCACCCAUGUGUGUGAUGUGGCUAGCAGGUAGGUCGCGGAGUGGAUU [Exclusion - Arginine B (Freestyle 14)] | 20.5 nM | 21.7 nM | 30.3 nM | 24.8 nM | 19.6 nM |
| AACAUGAGGAUCACCCAUGUGUCCUCGAAACGAGGACCGGUACGGCCGCCACUCGACGUAUGUUGACGAAAAGUCAGCAUACGAA [Mat - Exclusion - Trytophan A - D12] | 112 nM |  | 310 nM | 330 nM |  |
| AUAAAUAAAACCGAUACCAGCCUUAUACAUGAGGAUCACCCAUGUUAUGCUUCCUUUUUUGGCCCUUGGCAGCGGAAAUGGGUAA [AstrosSSTheB#1] | 45.3 nM |  | 74.4 nM |  | 75.6 nM |
| UGUAUGUGAUCUGAUACCAGAGUUGAUAACCUGAGGAUCACCCUGGUAAGGCGAAAGCCACUCCCUUGGCAGCAGAUCGCAUACU | 131 nM | 86.1 nM | 67.4 nM | 18.3 nM | 101 nM |
| AAUUUUAACGGAAGGAGCGUCAAUUAAUACAAACAUGAGGAUCACCCAUGUCAAUACAUGAGACAGGUAGGUCGCCGUUAUUUGA [JR_AAArginiB_Sub024] | 23.9 nM | 22.1 nM | 28 nM | 21.7 nM | 23.3 nM |
| CCUGACAUGAGGAUCACCCAUGUGUGAGCACGAGGACCGGUACGGCCGCCACUCGCGUUGCCGGCCGGACUAUCUGGCGAAGUCA [theeternabot_sameState_MS2_Trp_A_10] | 28.3 nM |  | 39.6 nM | 41.4 nM |  |
| AAUUUGUCGGGUGAUACCAGCCUCGGCGCGUCUCGCGCUGAACAUGAGGAUCACCCAUGUGGCCCUUGGCAGCACAUGACAAAUC [Raracere] | 367 nM |  | 557 nM |  | 677 nM |
| GGACUAACCAGAAGGAGCGGCACGCAGAAACUGCAAUUUCCUCCACACGAGGAUCACCCGUGUCAGGUAGGUCGCUGGUUAGUCG [ArgBX 29] | 26.4 nM | 22.7 nM | 21.8 nM | 23.8 nM | 22.6 nM |
| GGCUGACAUGAGGAUCACCCAUGUAGUGAUACCAGUAAGAGAAUAUACCCUUGGCAGCACAGGUAACAACUCGUCUCCAAAGUAA [theeternabot_sameState_MS2_Theo_A_49] | 53.7 nM |  | 55.6 nM |  | 38.2 nM |
